Results on two molecules are retold here after patent publication US20230048360A1 (EUREKA THERAPEUTICS, published 2023).

Test [1] addresses T1, cell surface-bound human GPC3 on GPC3+ HepG2 cells (human, UniProt P51654 25-560, GPI anchor and heparin sulfate side chains, as the filing describes native GPC3).
T1 construct: Endogenous GPC3 of the HepG2 line; also called Glypican 3; native GPC3
Briefly: FACS titration on GPC3+ HepG2 cells, anti-His detection; the row is GC33 L2K by paragraph 806.
Protocol: (§1) APC-conjugated anti-His tag mouse antibody (R&D Systems) was added in a volume of 100 μl, a 20-fold dilution of 5% FBS in PBS and 0.05% NaN₃ and incubated for 1 hour at 4° C. in the dark, then washed twice with PBS. The cells were fixed in 3-fold dilution of fixation buffer (BioLegend) in PBS in a volume of 150 μl. As a separate control, HepG2 cells were also incubated with APC-conjugated anti-His tag mouse antibody (R&D Systems) in the absence of any L2K bispecific antibody.

For test [2], the target named is T1, cell surface-bound human GPC3 on GPC3+ …. In words: apparent Kd from FACS on GPC3+ HepG2 cells; the row is GC33 L2K by paragraph 806.
Protocol: as §1
In a further test the target is T2, biotinylated rat GPC3 (rat, UniProt P13265 25-558, limits assumed, biotinylated (site not stated)).
T2 construct: also called rat bt-GPC3; rat GPC3 peptide
T2 sequence (P13265 25-558 limits assumed): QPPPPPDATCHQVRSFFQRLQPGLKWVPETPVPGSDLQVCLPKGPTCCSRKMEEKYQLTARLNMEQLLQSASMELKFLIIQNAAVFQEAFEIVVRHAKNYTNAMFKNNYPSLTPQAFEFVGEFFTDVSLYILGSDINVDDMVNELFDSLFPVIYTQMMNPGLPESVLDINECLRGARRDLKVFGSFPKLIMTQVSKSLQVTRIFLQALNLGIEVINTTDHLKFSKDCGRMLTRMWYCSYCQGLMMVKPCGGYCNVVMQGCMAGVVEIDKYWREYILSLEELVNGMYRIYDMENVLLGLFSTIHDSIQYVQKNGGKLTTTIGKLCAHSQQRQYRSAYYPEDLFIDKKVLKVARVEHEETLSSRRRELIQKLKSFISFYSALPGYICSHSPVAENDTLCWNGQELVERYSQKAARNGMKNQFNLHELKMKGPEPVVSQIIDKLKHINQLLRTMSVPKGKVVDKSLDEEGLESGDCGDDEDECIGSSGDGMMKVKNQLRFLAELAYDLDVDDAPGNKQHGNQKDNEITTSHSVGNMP
Briefly: ELISA, biotinylated rat GPC3 on streptavidin plate. In general terms: ELISA stands for enzyme-linked immunosorbent assay.

Protocol for biotinylated rat GPC3: Antibodies were tested at 3× serial dilution, starting from 100 ng/mL, for a total of 8 concentrations. Biotinylated rat GPC3 was coated onto streptavidin plates in a volume of 100 μL at 2 ug/ml in PBS and added to a Streptavidin coated 96-well ELISA plate, allowing for incubation at 4° C. overnight. The plate was blocked with 5% non-fat dried milk (NFDM) in PBS for 2 hours at room temperature.

B1: GC33 L2K (bispecific antibody, V domains shown)
VH: QVQLQQSGAELVKPGASVKLSCKASGYTFTDYEMHWVKQTPVHGLKWMIGALDPKTGDTAYSQKFKGKATLTADKSSSTAYMELRSLTSEDSAVYYCTRFYSYTYWGQGTLVTVSA
VL: DVVMTQTPLSLPVSLGDQASISCRSSQSLVHSNGNTYLHWYLQKPGQSPKLLIYKVSNRFSGVPDRFSGSGSGTDFTLKISRVEAEDLGVYFCSQNTHVPPTFGSGTKLEIK
notes: Tested as a single-chain tandem di-scFv: scFv of GC33 fused to an anti-human CD3 epsilon scFv, with a hexahistidine tag; also called GC33 antibody converted to an L2K
The term EC50 denotes the concentration needed to bring the measured effect to its halfway point. A lower EC50 goes with an effect from little substance. On to B1, for which it took 0.14 µg/mL to reach a half-maximal effect in test [1] (EC50). For the same molecule, the Kd in test [2] came out at 2.7 nM.

B2: GPC3A-53 mIgG1 clone (antibody, V domains shown)
VH: QLQLQESGPGLVKPSETLSLTCTVSGGSISSSSYYWGWIRQPPGKGLEWIGSIYYSGSTYYNPSLKSRVTISVDTSKNQFSLKLSSVTAADTAVYYCARWWSGSYDTWGQGTLVTVSS
VL: QSVLTQPPSASAAPGQRVTISCSGTSSNIGSNYVWWYQQLPGAAPRLLIYGNSNRPSGVPDRFSGSKSGTSASLAITGLQAEDEADYYCQSYDSSLSGSNVFGTGTKVTVLG
notes: Mouse chimeric IgG1; also called GPC3A mIgG1 clone A-53
Turning to B2, the binding result with biotinylated rat GPC3 is listed as “no binding (tested: 5 µg/mL)”.
